Laboratory results taken from patent publication US20200040101A1 (ASKGENE PHARMA, published 2020).

What was measured:
[1] = molecular target: T1, human Claudin 18.2 (CLDN18.2) expressed on cells (human, UniProt P56856-2 1-261); assay: FACS, hybridoma supernatant of the first fusion, AF 647 anti-IgG
T1 construct: whole, on cells; also called CLD18.2; CLD18A2

[2] = molecular target: T1, human Claudin 18.2 (CLDN18.2) expressed …; assay: FACS, hybridoma subclone supernatant, CLDN18.2 and CLDN18.1 cells in one plot

binding result [1] | binding result [2] | Binder
binds |  | 30B5 (mouse hybridoma subclone antibody) (antibody, V domains shown, also remade as chimeric antibody with human IgG1 and kappa) VH: EVKLEESGGGLVQPGGSMKLSCVASGFTFSNYWMNWVRQSPEKGLEWVAEIRLKSKNYATHYAESVKGRFTISRDDSIGSVYLQMNNLRAEDTGIYYCARGHYGTNYGDYWGQGTSVTVSS VL: DIVMTQSPSSLTVTAGEKVTVSCKSSQSLFNSGNQKHYLTWYQQKPGQPPKLLIYRASTRESGVPDRFTGSGSGTDFTLTIRNVQAEDLAVYYCQNDYSFPLTFGAGTKLELK
 | binds | 79C4 (mouse hybridoma subclone antibody) (antibody, V domains shown, also remade as chimeric antibody with human IgG1 and kappa (pFUSE vectors)) VH: EVKLEESGGGLVQPGGSMKLSCVASGFTFSNYWMNWVRQSPEKGLEWVAEIRLKSKNYATHYAESVKGRFTISRDDSIGSVYLQMNNLRAEDTGIYYCARGHYGTNYGDYWGQGTSVTVSS VL: DIQTTQSPSSLSASLGERVTLTCRASQEISGYLSWLQQKPDGTIKRLIYAASTLDSGVPKRFSGSRSGSDYSLTINSLESEDFVDYYCLQYDSSPWTFGGGTKLEIK
 | binds | 83G3 (mouse hybridoma subclone antibody) (antibody, V domains shown, also remade as chimeric antibody with human IgG1 and kappa) VH: QVQLQQSGAELAKPGASVKLSCKASGFTFTSYWIHWVKQRPGQGLEWIGYIDPSNTYTKFNQKFKDKATLTADKSSSTAYMQLNSLTFEDSAVYYCATGRGFAYWGQGTLVTVSS VL: DIVMTQSPSSLTVTAGEKVTVSCKSSQSLFNSGNQKHYLTWYQQKPGQPPKLLIYRASTRESGVPDRFTGSGSGTDFTLTIRNVQAEDLAVYYCQNDYSFPLTFGAGTKLELK
